Laboratory results published in patent US10597649B2, “Tau protease compositions and methods of use” (Oligomerix, Inc., priority 2011, dated 2020).

B1: TP-81: 81 amino acid truncated tau peptide, 4R2N 260-340 (SEQ ID NO:5) (protein, listed as Homo sapiens)
chain: MIGSTENLKHQPGGGKVQIINKKLDLSNVQSKCGSKDNIKHVPGGGSVQIVYKPVDLSKVTSKCGSLGNIHHKPGGGQVEVK
B2: TP-83: 83 amino acid truncated tau peptide, 4R2N 258-340 (SEQ ID NO:4) (protein, listed as Homo sapiens)
chain: MSKIGSTENLKHQPGGGKVQIINKKLDLSNVQSKCGSKDNIKHVPGGGSVQIVYKPVDLSKVTSKCGSLGNIHHKPGGGQVEVK
B3: TP-210: 210-aa fragment of tau protein, amino acids 131-340 of tau 4R2N plus initiating methionine (SEQ ID NO:1) (protein, listed as Homo sapiens)
chain: MSKDGTGSDDKKAKGADGKTKIATPRGAAPPGQKGQANATRIPAKTPPAPKTPPSSGEPPKSGDRSGYSSPGSPGTPGSRSRTPSLPTPPTREPKKVAVVRTPPKSPSSAKSRLQTAPVPMPDLKNVKSKIGSTENLKHQPGGGKVQIINKKLDLSNVQSKCGSKDNIKHVPGGGSVQIVYKPVDLSKVTSKCGSLGNIHHKPGGGQVEVK
B4: TP-99: 99-amino acid fragment of tau 4R2N, amino acids 241-340, plus initiating methionine (SEQ ID NO:3) (protein)
chain: MRLQTAPVPMPDLKNVKSKIGSTENLKHQPGGGKVQIINKKLDLSNVQSKCGSKDNIKHVPGGGSVQIVYKPVDLSKVTSKCGSLGNIHHKPGGGQVEVK

Legend:
[1] = Tau protease enzymatic activity of truncated tau peptides (general statement); type: biochemical
tau FRET peptide = experiment: FRET assay of tau protease activity; type: biochemical; conditions: 10, 25 or 50 μg oligomerized protein, 2.5 μg FRET peptide, 17 hrs at 37° C.
Excerpt: The FRET assay peptide substrate is composed of nine amino acids surrounding the autoproteolytic cut site after Lys 340 in tau 4R2N with the fluorescent molecule methylcoumarin (MCA) at the amino terminus and the fluorescence quenching molecule dinitrophenol (DNP) at the C-terminus using an additional Lys at the C-terminus to conjugate it to the peptide: MCA-[…]-{Lys(DNP} (SEQ ID NO:18). The concept is that when tau protease cuts the peptide the quench is dissociated from the fluor such that there is a detectable increase in the fluorescence signal in the assay. This assay can be used to monitor tau protease activity to screen small molecule compounds, peptides or antibodies that modulate tau protease activity. This assay can also be used to characterize enzyme kinetics and optimize the buffer conditions for tau protease. […]
A FRET assay was conducted to determine if the Tau 4R2N 260-340 construct has protease activity using the tau FRET peptide described in FIG. 22 and FIG. 23. […] To determine the background values for the wells of the 96-well plate 95 microliter of buffer was added to the wells of a black 96-well Microfluor I plate (ThermoFisher Scientific) and an EnVision plate reader was used to determine signal (as described in FIG. 23). 5 μL of each sample was mixed with the buffer in the wells and the signal was determined. […]

[2] = test system: Tau 4R2N (amino acids 335-353) peptide substrate; experiment: Peptide digest HPLC assay of tau protease activity; type: biochemical, human; conditions: oligomerized truncated tau, 37° C., overnight (TP-210) or 44 hr (TP-99)
Excerpt: N-terminal sequencing of fragments using mass spectrometry identified autoproteolytic cut sites. In particular, cutting at the Lys340-Ser341 (340KS341) cut site occurred readily. Therefore, a 19-amino acid peptide corresponding to amino acids 335G to 353L of tau protein was synthesized that contained the KS cut site (340KS341). The reaction was monitored by reverse-phase high-pressure liquid chromatography (HPLC). […] An asterisk marks a non-specific contaminant that was used as a marker. […] 10 μg of tau peptide 335-353 ([…]) (SEQ ID NO:19) was custom synthesized by Genscript (Piscataway, N.J., USA) and 1 mg was dissolved in 1 mL of buffer (25 mM Tris-HCl pH 7.4). […] 32Karat™ LC-CE System, Beckman Coulter, Inc., (Indianapolis, Ind.)] using a linear gradient of acetonitrile in 0.1% TFA 0-60% acetonitrile on an analytical C18 column (12.5 cm×2.1 mm, 5 μm, (Supelco, Bellefonte, Pa., USA). 30 μg of peptide was incubated without tau protease as a negative control and analyzed with the same method;
Cleavage of the peptide substrate for tau protease, Tau 4R2N (amino acids 335-353) […] (SEQ ID NO.19), was used to monitor activity using reverse-phase HPLC. […] The large peak in the lower trace indicated intact peptide was greatly diminished in the upper trace and replaced with two smaller peaks F1 and F2 that represent fragments generated by TP-210. […]

| Molecule | tau protease enzymatic activity [1] | cutting of tau FRET peptide (tau FRET peptide) | protease activity on tau peptide 335-353 (HPLC) [2] |
| --- | --- | --- | --- |
| B1 | retain tau protease enzymatic activity | cuts tau FRET peptide | – |
| B2 | retain tau protease enzymatic activity | – | – |
| B3 | retain tau protease enzymatic activity | – | retained proteolytic activity |
| B4 | retain tau protease enzymatic activity | – | showed protease activity |
